Measurements as given in patent publication US5603943A, “Nasally administrable compositions” (Dott Research Laboratory, priority 1994, dated 1997).
Several values for one entry are separate records, joined by “and”; a condition that tells them apart may be missing. Equal values may be shown once. Ends that are not written are not given here.

Columns and labels:
[1] = Somatropin blood concentration, nasal powder with hydroxyapatite or calcium carbonate (Test Example 10); type: in vivo, healthy male adults (human); conditions: for Concentration of somatropin in the blood: nasal 6.825 somatropin unit/25 mg
Protocol: The blood (2.5 ml) was collected from each of the tested adults prior to administration and then at 5, 10, 15, 20, 30, 45, 60, 90, 120 and 150 minutes after administration.

[2] = Somatropin blood concentration, nasal powder with calcium lactate or calcium carbonate (Test Example 11); type: in vivo, healthy male adults (human)
Protocol: The blood (2.5 ml) was collected from each of the tested adults prior to administration and then at 5, 10, 15, 20, 30, 45, 60, 90, 120, 150 and 180 minutes after administration.

[3] = Nasal absorption, clinical effect and irritation (general statement); type: in vivo; conditions: powder in specific carrier, nasal route
[4] = relative, among calcitonins; cited from earlier work
[5] = test system: blood sugar; assay: Average fall of the blood sugar after nasal or subcutaneous insulin (Test Example 1); type: in vivo, male New Zealand rabbits
Protocol: A nasally administrable composition in powdery form was prepared by formulating insulin as a physiologically active peptide at the rate of 2.4 mg/rabbit (5 insulin unit (IU)/rabbit) with hydroxyapatite as a carrier having a mean particle size ranging from 40 to 45 μm.
The resulting composition was nasally administered once to six male New Zealand rabbits.
The average fall of the blood sugar was measured and represented in percentage (%) at 0, 15, 30, 60, 120 and 180 minutes after administration.
For comparison, 2 (IU)/rabbit of insulin was administered subcutaneously to six male New Zealand rabbits and the average fall of the blood sugar was measured and represented in percentage (%) at 0, 60, 120, 240 and 360 minutes after administration.

In the case of “somatropin: somatropin (growth hormone; recombinant type--NOVO), 150 mg per composition (1,000 mg) with carrier”, the “Concentration of somatropin in the blood” value ([1]; 0 min (predose), calcium carbonate, individual cases No. 27-28 in order) is reported as 0.28 ng/mL and 0.24 ng/mL, the “Concentration of somatropin in the blood” value ([1]; 0 min (predose), hydroxyapatite, individual cases No. 25-26 in order) is reported as 0.49 ng/mL and 0.76 ng/mL and the “Concentration of somatropin in the blood” value ([1]; 5 min, calcium carbonate, individual cases No. 27-28 in order) is reported as 0.96 ng/mL and 0.55 ng/mL. The “Concentration of somatropin in the blood” value ([1]; 5 min, hydroxyapatite, individual cases No. 25-26 in order) was 2.44 ng/mL and 3.18 ng/mL, the “Concentration of somatropin in the blood” value ([1]; 10 min, calcium carbonate, individual cases No. 27-28 in order) was 2.55 ng/mL and 1.08 ng/mL and the “Concentration of somatropin in the blood” value ([1]; 10 min, hydroxyapatite, individual cases No. 25-26 in order) was 3.59 ng/mL and 2.27 ng/mL. The “Concentration of somatropin in the blood” value ([1]; 15 min, calcium carbonate, individual cases No. 27-28 in order) was 2.84 ng/mL and 1.41 ng/mL, the “Concentration of somatropin in the blood” value ([1]; 15 min, hydroxyapatite, individual cases No. 25-26 in order) was 4.66 ng/mL and 2.00 ng/mL and the “Concentration of somatropin in the blood” value ([1]; 20 min, calcium carbonate, individual cases No. 27-28 in order) was 3.02 ng/mL and 1.78 ng/mL. The “Concentration of somatropin in the blood” value ([1]; 20 min, hydroxyapatite, individual cases No. 25-26 in order) was 6.25 ng/mL and 1.86 ng/mL, the “Concentration of somatropin in the blood” value ([1]; 30 min, calcium carbonate, individual cases No. 27-28 in order) was 4.11 ng/mL and 1.91 ng/mL and the “Concentration of somatropin in the blood” value ([1]; 30 min, hydroxyapatite, individual cases No. 25-26 in order) was 5.21 ng/mL and 1.67 ng/mL. The “Concentration of somatropin in the blood” value ([1]; 45 min, calcium carbonate, individual cases No. 27-28 in order) was 8.93 ng/mL and 1.99 ng/mL, the “Concentration of somatropin in the blood” value ([1]; 45 min, hydroxyapatite, individual cases No. 25-26 in order) was 4.16 ng/mL and 1.80 ng/mL and the “Concentration of somatropin in the blood” value ([1]; 60 min, calcium carbonate, individual cases No. 27-28 in order) was 13.10 ng/mL and 2.11 ng/mL. The “Concentration of somatropin in the blood” value ([1]; 60 min, hydroxyapatite, individual cases No. 25-26 in order) was 2.93 ng/mL and 1.61 ng/mL, the “Concentration of somatropin in the blood” value ([1]; 90 min, calcium carbonate, individual cases No. 27-28 in order) was 14.60 ng/mL and 1.27 ng/mL and the “Concentration of somatropin in the blood” value ([1]; 90 min, hydroxyapatite, individual cases No. 25-26 in order) was 1.45 ng/mL and 1.41 ng/mL. The “Concentration of somatropin in the blood” value ([1]; 120 min, calcium carbonate, individual cases No. 27-28 in order) was 5.65 ng/mL and 0.92 ng/mL, the “Concentration of somatropin in the blood” value ([1]; 120 min, hydroxyapatite, individual cases No. 25-26 in order) was 0.76 ng/mL and 1.16 ng/mL and the “Concentration of somatropin in the blood” value ([1]; 150 min, calcium carbonate, individual cases No. 27-28 in order) was 2.97 ng/mL and 0.80 ng/mL. The “Concentration of somatropin in the blood” value ([1]; 150 min, hydroxyapatite, individual cases No. 25-26 in order) was 0.91 ng/mL, the “absorption through nasal route” value ([1]; hydroxyapatite and calcium carbonate) was “high extent of absorption” and the “Concentration of somatropin in the blood” value ([2]; 0 min (predose), nasal 6.825 somatropin unit/25 mg, calcium carbonate, individual cases No. 31-32 in order) was 0.15 ng/mL and 0.69 ng/mL. For the same substance, the “Concentration of somatropin in the blood” value ([2]; 0 min (predose), nasal 6,825 (so in the source) somatropin unit/25 mg, calcium lactate, individual cases No. 29-30 in order) was 1.15 ng/mL and 0.16 ng/mL, the “Concentration of somatropin in the blood” value ([2]; 5 min, nasal 6.825 somatropin unit/25 mg, calcium carbonate, individual cases No. 31-32 in order) was 0.46 ng/mL and 6.15 ng/mL and the “Concentration of somatropin in the blood” value ([2]; 5 min, nasal, 25 mg, calcium lactate, individual cases No. 29-30 in order) was 2.56 ng/mL and 0.30 ng/mL. For the same substance, the “Concentration of somatropin in the blood” value ([2]; 10 min, nasal 6.825 somatropin unit/25 mg, calcium carbonate, individual cases No. 31-32 in order) was 0.81 ng/mL and 2.81 ng/mL, the “Concentration of somatropin in the blood” value ([2]; 10 min, nasal, 25 mg, calcium lactate, individual cases No. 29-30 in order) was 4.29 ng/mL and 0.37 ng/mL and the “Concentration of somatropin in the blood” value ([2]; 15 min, nasal 6.825 somatropin unit/25 mg, calcium carbonate, individual cases No. 31-32 in order) was 1.13 ng/mL and 2.49 ng/mL. The “Concentration of somatropin in the blood” value ([2]; 15 min, nasal, 25 mg, calcium lactate, individual cases No. 29-30 in order) was 5.11 ng/mL and 0.65 ng/mL, the “Concentration of somatropin in the blood” value ([2]; 20 min, nasal 6.825 somatropin unit/25 mg, calcium carbonate, individual cases No. 31-32 in order) was 1.30 ng/mL and 2.20 ng/mL and the “Concentration of somatropin in the blood” value ([2]; 20 min, nasal, 25 mg, calcium lactate, individual cases No. 29-30 in order) was 5.87 ng/mL and 0.72 ng/mL. The “Concentration of somatropin in the blood” value ([2]; 30 min, nasal 6.825 somatropin unit/25 mg, calcium carbonate, individual cases No. 31-32 in order) was 1.64 ng/mL and 2.12 ng/mL, the “Concentration of somatropin in the blood” value ([2]; 30 min, nasal, 25 mg, calcium lactate, individual cases No. 29-30 in order) was 7.70 ng/mL and 0.79 ng/mL and the “Concentration of somatropin in the blood” value ([2]; 45 min, nasal 6.825 somatropin unit/25 mg, calcium carbonate, individual cases No. 31-32 in order) was 1.79 ng/mL and 1.67 ng/mL. The “Concentration of somatropin in the blood” value ([2]; 45 min, nasal, 25 mg, calcium lactate, individual cases No. 29-30 in order) was 5.99 ng/mL and 0.71 ng/mL, the “Concentration of somatropin in the blood” value ([2]; 60 min, nasal 6.825 somatropin unit/25 mg, calcium carbonate, individual cases No. 31-32 in order) was 1.47 ng/mL and 1.36 ng/mL and the “Concentration of somatropin in the blood” value ([2]; 60 min, nasal, 25 mg, calcium lactate, individual cases No. 29-30 in order) was 6.16 ng/mL and 0.62 ng/mL. The “Concentration of somatropin in the blood” value ([2]; 90 min, nasal 6.825 somatropin unit/25 mg, calcium carbonate, individual cases No. 31-32 in order) was 1.18 ng/mL and 1.02 ng/mL, the “Concentration of somatropin in the blood” value ([2]; 90 min, nasal, 25 mg, calcium lactate, individual cases No. 29-30 in order) was 3.39 ng/mL and 0.58 ng/mL and the “Concentration of somatropin in the blood” value ([2]; 120 min, nasal 6.825 somatropin unit/25 mg, calcium carbonate, individual cases No. 31-32 in order) was 0.79 ng/mL and 0.48 ng/mL. For the same substance, the “Concentration of somatropin in the blood” value ([2]; 120 min, nasal, 25 mg, calcium lactate, individual cases No. 29-30 in order) was 1.70 ng/mL and 0.32 ng/mL, the “Concentration of somatropin in the blood” value ([2]; 150 min, nasal 6.825 somatropin unit/25 mg, calcium carbonate, individual cases No. 31-32 in order) was 0.59 ng/mL and 0.37 ng/mL and the “Concentration of somatropin in the blood” value ([2]; 150 min, nasal, 25 mg, calcium lactate, individual cases No. 29-30 in order) was 0.24 ng/mL. The “Concentration of somatropin in the blood” value ([2]; 180 min, nasal 6.825 somatropin unit/25 mg, calcium carbonate, individual cases No. 31-32 in order) was 1.67 ng/mL and 0.48 ng/mL, the “Concentration of somatropin in the blood” value ([2]; 180 min, nasal, 25 mg, calcium lactate, individual cases No. 29-30 in order) was 0.45 ng/mL and 1.02 ng/mL and the “absorption through nasal route” value ([2]; calcium lactate and calcium carbonate) was “high extent of absorption”. The “absorption into the body” value [3] was “well absorbed into the body” and the clinical effects [3] was “high clinical effects”.

In the case of “human calcitonin: naturally occurring calcitonin extracted from the origin and commercially available”, the stability [4] is given as “higher than salmon calcitonin”.

For “insulin: peptide hormone formulated with hydroxyapatite for nasal administration; also given subcutaneously as comparison”, the “Blood sugar, percent of initial value” ([5]; S.C. comparison, 2 IU/rabbit, 0 min) was 100%, the “Blood sugar, percent of initial value” ([5]; S.C. comparison, 2 IU/rabbit, 60 min) was 57% and the “Blood sugar, percent of initial value” ([5]; S.C. comparison, 2 IU/rabbit, 120 min) was 56%. The “Blood sugar, percent of initial value” ([5]; S.C. comparison, 2 IU/rabbit, 240 min) was 84%, the “Blood sugar, percent of initial value” ([5]; S.C. comparison, 2 IU/rabbit, 360 min) was 94% and the “absorption through nasal route” value ([5]; hydroxyapatite, rabbits) was “high extent of absorption”. For the same substance, the “Blood sugar, percent of initial value” ([5]; nasal, 5 IU/rabbit, hydroxyapatite, 0 min) was 100%, the “Blood sugar, percent of initial value” ([5]; nasal, 5 IU/rabbit, hydroxyapatite, 15 min) was 105% and the “Blood sugar, percent of initial value” ([5]; nasal, 5 IU/rabbit, hydroxyapatite, 30 min) was 66%. For the same substance, the “Blood sugar, percent of initial value” ([5]; nasal, 5 IU/rabbit, hydroxyapatite, 60 min) was 67%, the “Blood sugar, percent of initial value” ([5]; nasal, 5 IU/rabbit, hydroxyapatite, 120 min) was 84% and the “Blood sugar, percent of initial value” ([5]; nasal, 5 IU/rabbit, hydroxyapatite, 180 min) was 96%. The “absorption into the body” value [3] was “well absorbed into the body” and the clinical effects [3] was “high clinical effects”.

In the case of “eel calcitonin: naturally occurring calcitonin extracted from the origin and commercially available (CSNLSTCVLGKLSQELHKLQTYPRTDVGAGTP; ends and bridges not checked; cysteine pairing not given here; UniProt P01262 1-32, looked up)”, the stability [4] is given as “higher in stability than human calcitonin”.
